The text below walks through data of doi:10.1101/2023.05.09.540094.

For experiment [1], the target named is human 26S proteasome (human | human (endogenous in HEK293)) (UniProt O00487).
Experiment [2] shares this target. The source holds these as a separate data set.
The target is the same in experiment [3]. Briefly: single-molecule TIRF microscopy.

B1: ZFAND5/ZNF216, recombinant wild type (natural protein)
chain: MAQETNQTPGPMLCSTGCGFYGNPRTNGMCSVCYKEHLQRQQNSGRMSPMGTASGSNSPTSDSASVQRADTSLNNCEGAAGSTSEKSRNVPVAALPVTQQMTEMSISREDKITTPKTEVSEPVVTQPSPSVSQPSTSQSEEKAPELPKPKKNRCFMCRKKVGLTGFDCRCGNLFCGLHRYSDKHNCPYDYKAEAAAKIRKENPVVVAEKIQRI
B1 yielded a stimulation of peptide hydrolysis of purified 26S proteasome in experiment [1] of less than 10 fold. In experiment [2], this molecule showed an increase of the initial (phase I) degradation rate of ubiquitylated cycB-cpGFP of 24% and an increase of the late (phase II) degradation rate of ubiquitylated cycB-cpGFP of 71%.

B2: His6-SNAP-ZFAND5wt (natural protein)
chain: B1 chain
modifications: SNAP tag labelled with SNAP-Surface 649 (fluorescent form) or with SNAP-Biotin (immobilised form)
In experiment [3], B2 returned a dwell-time constant, first (short-binding) exponential mode of 50 ms and a dwell-time constant, second (long-binding) exponential mode of 614 ms.
